Measurements: the supplement of paper PMC10567573

B1: SCNN1D (parent)
chain: FLGHHSFSVRPGTEATISIREDEV
B2: HDAC6 (parent)
chain: QEGLLDRCVSFQARFAEKEELMLV

Variants of: B1
Experiment: protein stability index of a GFP-peptide fusion (GPS, HEK-293T) (PSI 1-6); higher = more stable
Conditions: c terminus: a fixed tail appended
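Note: lentivirally expressed fusions sorted by FACS into six bins by GFP to DsRed ratio, PSI derived from sequencing read proportions per bin multiplied by bin number.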

Protein stability index of substitutions, site by site:
D22: M 2.45 | H 1.79 | P 1.74 | N 2.23 | L 1.51 | R 2.4 | E 2.11 | S 1.35 | C 2.21 | I 2.39 | W 1.77 | Q 1.39 | V 1.57 | Y 3.14 | A 1.89 | T 2.07 | K 2.04 | F 1.73
I19: T 1.74 | W 1.32 | Q 1.99 | V 2.74 | F 2.21 | M 1.55 | R 2.06 | G 2.6 | N 2.42 | C 1.58 | D 1.92 | P 1.89 | Y 1.52 | E 1.71 | L 2.16 | K 2.14 | S 2.13 | A 2.68 | H 1.9
I17: P 2.19 | E 2.1 | M 1.75 | G 2.38 | K 2.32 | F 1.36 | T 2.24 | Q 2.54 | R 2.07 | C 1.96 | L 1.62 | V 1.68 | S 1.66 | D 2.12 | N 1.68 | Y 2.79 | A 2.44 | H 2.23 | W 1.58
T16: I 2.29 | V 2.25 | N 2.05 | E 1.62 | R 2.46 | C 1.29 | G 2.1 | P 1.85 | H 1.87 | S 2.57 | A 2.37 | M 2.62 | D 3.29 | Y 2.23 | W 1.4 | F 2.04 | K 1.75 | L 1.49 | Q 2.8
V24: P 1.76 | I 1.8 | E 2.27 | G 1.9 | W 1.44 | H 1.76 | Y 1.48 | A 1.8 | F 1.76 | S 1.62 | Q 2.25 | M 2.75 | K 1.93 | L 1.66 | D 2.15 | R 1.49 | C 1.81 | N 1.99 | T 1.66
E21: L 2.48 | A 2.25 | K 1.44 | D 1.56 | P 2.33 | Q 1.74 | I 3.27 | C 1.68 | T 2.55 | G 1.33 | V 3.42 | W 2.45 | N 2.11 | F 2.3 | Y 2.52 | M 2.08 | S 1.8 | H 1.48 | R 2.6
E23: N 2.1 | H 2.32 | L 1.66 | T 1.41 | V 2.05 | C 1.88 | K 2.38 | P 1.99 | G 2.29 | F 2.45 | M 1.91 | A 1.96 | I 2.23 | R 1.73 | S 1.06 | Y 2.54 | D 2.12 | W 3.12 | Q 1.65
A15: Q 1.96 | I 1.95 | S 2.63 | N 2 | Y 1.71 | W 3.05 | K 1.91 | M 1.58 | V 1.47 | T 2.31 | L 2.66 | R 1.88 | P 2.04
S18: G 1.47 | V 1.25 | Y 1.71 | L 2.2 | M 1.55 | T 1.66 | R 2.22 | N 1.57 | I 1.96 | H 1.33 | Q 1.79 | A 1.6 | E 2.49 | F 1.8 | K 1.67 | D 1.43 | P 1.8
R20: E 2.1 | N 1.49 | A 2.3 | H 1.67 | D 1.9 | I 2.5 | P 1.79 | W 1.42 | V 1.65 | Y 1.77 | T 1.79 | L 1.52 | F 3.02 | G 2.3 | K 1.73 | M 1.5 | Q 1.79 | C 2.24 | S 2.27

Variants of: B2
Experiment: as above
Conditions: c terminus: a fixed tail appended

Protein stability index: each site, then its substitutions
C8: W 1.62 | G 2.61 | H 1.93 | F 1.61 | A 1.97 | V 2.17 | N 1.9 | I 1.67 | E 2.04 | S 2.44 | T 2.27 | M 1.98 | L 1.57 | K 2.45 | D 1.77 | Q 2.12 | Y 4.19 | R 1.98 | P 1.87
L5: M 1.73 | C 1.34 | G 1.71 | T 1.87 | H 1.67 | Q 1.56 | R 1.78 | F 1.33 | K 1.72 | E 3.01 | V 2.06 | S 1.9 | W 1.58 | I 2.07 | P 1.83 | D 2.62 | A 1.87 | N 2.36 | Y 1.79
G3: I 1.95 | R 2.01 | T 1.97 | C 2.3 | S 2.19 | K 2.16 | V 1.4 | L 1.64 | D 2.12 | E 2.54 | A 1.89 | H 2.12 | M 2.04 | N 2.93 | F 1.06 | P 1.78 | Y 1.31 | W 1.79 | Q 2.01
R7: M 1.92 | G 2.17 | H 1.7 | V 1.71 | S 3.14 | N 2.13 | E 1.93 | K 1.43 | D 1.69 | P 2.56 | W 1.83 | F 2.59 | T 1.73 | Q 1.94 | L 2.69 | A 2.74 | I 2.91 | Y 1.66 | C 2.32
D6: F 1.54 | N 2.37 | R 2 | C 1.78 | S 2.13 | H 2.09 | Y 1.95 | K 2.69 | T 1.64 | Q 1.87 | V 2.06 | M 1.87 | A 2.45 | G 1.74 | P 1.38 | E 1.84 | I 1.69 | W 2.38 | L 1.9
E2: G 2.52 | S 2.5 | K 1.94 | L 1.69 | A 1.12 | F 1.77 | T 2.14 | D 1.83 | I 2.12 | P 2.56 | Q 1.21 | N 1.28 | Y 1.8 | V 2.44 | C 2 | W 1.57 | R 1.95 | H 1.96 | M 1.62
V9: A 1.71
Q1: A 1.94 | V 1.54 | K 1.39 | L 2.33 | F 1.18 | G 1.51 | W 1.47 | C 1.39 | H 1.54 | E 2.51 | M 1.94 | R 1.63 | I 2.48 | D 1.85 | Y 1.25 | T 1.77 | P 2.13 | N 1.91 | S 2.34
L4: F 2.47 | W 1.5 | E 1.85 | Q 1.99 | R 1.79 | M 2.19 | D 1.75 | K 1.94 | C 2.73 | A 1.62 | H 1.44 | S 1.75 | G 1.43 | Y 2.01 | N 2.06 | P 2.04 | V 1.9 | I 1.79 | T 1.91
